Assay results taken from the nanobody polyreactivity screen of Harvey et al. (2022).

Assay: yeast display, Sf9 membrane polyspecificity reagent, FACS + sequencing; frameworks hold sequencing errors
Outline: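 Nanobodies from a synthetic yeast display library (Saccharomyces cerevisiae BJ5465), induced 36–48 hours with galactose, were stained 1 hour at 4 °C with 10% biotinylated, detergent-solubilized Sf9 membrane reagent, enriched on streptavidin microbeads, then FACS-sorted. Anti-HA (expression) and streptavidin (reagent binding) fluorescence set low and high (top ~1%) gates. Polyreactivity labels come from the gate of origin. Genes were colony-PCR amplified, MiSeq 2 × 250 sequenced and filtered by CDR length.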

| Sequence | polyreactivity (PSR sort gate) |
| --- | --- |
| QVQLVESGGGLVQAGGSLRLSCAASGIIFSKYAMGWYRQAPGKERELVARISWRGGDTYYADSVKGRFTISRDNAKNTVYLQMNSLKPEDTAVYYCNARIWGRYFSYTRFDYWGQGTQVTVSS | high polyreactivity |
| QVQLVESGGGLVQAGGSLRLSCAASGIIFSLKTMGGYRQAPGKERELVAAISSSGGSTYYADSVKGRFTISRDNAKNCVYVQMNSLKPEDTAVYYCARRYAPNTSLTFYYWGQGTQVTVSS | low polyreactivity |
| QVQLVESGGGLVQAGGSLRLSCAASGIIFSPYAMGWYRQAPGKERELVAAINFSTGRTYYADSVKGRFTISRDNAKNTVYLQMNSLKPEDTAVYYCAAGKYPYVFRGGYDYWGQGTQVTVSS | low polyreactivity |
| QVQLVESGGGLVQAGGSLRLSCAASGIIFSQYAMGWYRQAPGKERELVAGITRSGGSTYYADSVKGRFSISRDNAKNTVYLQMNSLKPDDTAVYYCAAVQRYEYGYWGQGTQVTVSS | high polyreactivity |
| QVQLVESGGGLVQAGGSLRLSCAASGIIFSRYAMGWYRPAPGKVRELVASITGRVGSTYYADSVKGPFTISRDNAKNTVYLQMNRLNPEDTAVYYCAADYVYKFDYWGHGTQVTVSS | low polyreactivity |
| QVQLVESGGGLVQAGGSLRLSCAASGIIFSSYAMGWYRQAPGKERELVAAIDWRGDSTYYADSVKGRFTISRDNAKNTVYLQMNSLKPEDTAVYYCAADGSTYDSVRYGYWGQGTQVTVSS | low polyreactivity |
| QVQLVESGGGLVQAGGSLRLSCAASGIIFSSYAMGWYRQAPGKERELVAAITSGGNTNYADSVKGRFTISRDNAKNTVYLQMNSLKTEDISVYYCNADTSFVWLAWHQYGFGYWGQGTQVTLSS | low polyreactivity |
| QVQLVESGGGLVQAGGSLRLSCAASGIIFSSYAMGWYRQAPGKERELVAAITYNGGRTYYADSVKGRFTISRDNAKNTVYLQMNSVKPEDTAVYYCAAERYPYGVTYSKLDYWGQGTQVTVSS | high polyreactivity |
| QVQLVESGGGLVQAGGSLRLSCAASGIIFSVNAMGWYRQAPGTERELVAAISSSGGDTYYADSVKGRFTISRDNAKNTVYLQMNSLKPEDTAVYYCAASVEQPGLAYDYWGQGTQVTVSS | low polyreactivity |
| QVQLVESGGGLVQAGGSLRLSCAASGIIFSYNAMGWYRQAPGKERELVAAITSGGITNYADSVKGRFTISRDNAKNTVYLQMNSLKPEDTAVYYCAAEVWRYYRRDYWGQGTQVTVSS | low polyreactivity |
| QVQLVESGGGLVQAGGSLRLSCAASGIIFSYYDMGWYRQAPGKERELVATITGNGGSTYYADSVKGRFTISRDNAKNTVYLQMNSLKPEDTAVYYCAAQTTVYIYDYWGQGTQVTVSS | low polyreactivity |
| QVQLVESGGGLVQAGGSLRLSCAASGIIFTDNAMGWYRQAPGKERELVATISWSTDNTYYADSVKGRFTISRDNAKNTVYLQMNSLKPEDTAVYYCAAEEYYAYWYQYDYWGQGTQVTVSS | low polyreactivity |
| QVQLVESGGGLVQAGGSLRLSCAASGIIFTDYAMGWYRQAPGKERELVAAISSGGGSTYYADSVKGRFTNSRDYAKNTVYLQMNSLKPEDTAVYYCAAQTSGSYGFDHWGQGTQVTVSS | high polyreactivity |
| QVQLVESGGGLVQAGGSLRLSCAASGIIFTHNAMGWYRQAPGKERELVAAISWSGGSTYYADSVKGRFTISRDNAKNTVYLQMNSLKPEDTAVYYCNAKFKQSYAQVAKFNSWGQGTQVTVSS | low polyreactivity |
| QVQLVESGGGLVQAGGSLRLSCAASGIIFTLYAMGWYRQAPGKERELVATISTGGGTYYADSVKGRFTISRDNAKNTVYLQMNSLKPEDTAVYYCAAKRYWNFRYDYWGQGTQVTVSS | high polyreactivity |
| QVQLVESGGGLVQAGGSLRLSCAASGIIFTLYATGWYRQAPGKERELVAAISGSGGSTYYADSVKGRFTISRDNAKNTVYLQMNSLKPEDTAVYYCAARGVRGTGLDSRMYYWGQGTQVTVSS | high polyreactivity |
| QVQLVESGGGLVQAGGSLRLSCAASGIIFTQNGMGVYRPAPGKERELVAAISWSAGGTYYADSVKGRFTISRDNAKNTVYLQMNSLIPEDTAVYYCNARVYNVFREFNSWGQGTQVTVSS | low polyreactivity |
| QVQLVESGGGLVQAGGSLRLSCAASGIIFTSNTMGWYRQAPGKVREFVASINWNGSSTYADSVKGRFTISRDNAKYTVYLQMNSLKPEDTAVYSCNADYNRNSVQFSLYDYWGQGTQVTVSS | low polyreactivity |
| QVQLVESGGGLVQAGGSLRLSCAASGIIFTTNAMGWYRQAPGKERELVATITSGGGTYYADSVKGRFTISRDNAKNTVYLQMNSLKPEDTAVYYCAATPGWGPWIFDHSYVDFDYWGQGTQVTVSS | low polyreactivity |
| QVQLVESGGGLVQAGGSLRLSCAASGIIFTTNMGWYRQAPGKERELVATIRVNGGRTYYADSVKGRFTISRDNAQNTVYLQMNSLKPEDTAVYYCAARYSAGAQRYGYWGQGTQVTVSS | high polyreactivity |
| QVQLVESGGGLVQAGGSLRLSCAASGIIFTYYAMGWYRPAPGKERELVAAISSGGGSTYYADSVKGRFTISRDNAKITVYLQMNSLKPEDTAVYYCNADYYFVYTYLHDYWGQGTQVTVSS | low polyreactivity |
| QVQLVESGGGLVQAGGSLRLSCAASGIIFTYYAMGWYRQAPGKERELVASISSSGTSTYYADSVKGRFTISRDYAKNTVYLQMNSLKPEDTAVYYCAADWTGSNGVDYWGQGTQVTVSS | low polyreactivity |

| Sequence | polyreactivity (PSR sort gate) |
| --- | --- |
| QVQLVESGGGLVQAGGSLRLSCAASGIIFVGYAMGWYRQAPGKERELVAAISSGGSTNYADSVKGRFTISRDNAKNTVYLQMNSLKPEDTAVYYCATDSGDGEGDYWGQGTQVTVSS | low polyreactivity |
| QVQLVESGGGLVQAGGSLRLSCAASGIIFVKYTMGWYRQAPGKERELVAAISRSGGSTYYADSVKGRFTISRDNAKNTVYLQMNSLKPEDTAVYYCNAVSRKVYPGPMDYWGQGTQVTVSS | high polyreactivity |
| QVQLVESGGGLVQAGGSLRLSCAASGIIFVKYTMGWYRQAPGKERELVAAITRGGSTYYADSVKGRFTISRDNAKNTVYLQMNSLKPEDTAVYYCAAAWYQYFVPGYRGYTYYYWGQGTQVTVSS | high polyreactivity |
| QVQLVESGGGLVQAGGSLRLSCAASGIIFVSYMGWYRQAPGKERELVAAIRWSGGRTYYADSVKGRFTISRDNAKNTVYLQMNSLKPEDTAVYFCAADALRKPKIALYDYWGQGTQVTVSS | high polyreactivity |
| QVQLVESGGGLVQAGGSLRLSCAASGIIFVYYVMGWYRQAPGKERELVASIDGSGGSTNYADSVKGRFTISRDNAKNTVYLQMNSLKPEDTAVYYCNADNILYWSTLDYWGQGTQVTVSS | low polyreactivity |
| QVQLVESGGGLVQAGGSLRLSCAASGIIFWFYAMGWNRQAPGKERELVAAISGDGDSTYYADSVKGRFTISRDNAKNTVYLQMNSLKPEDTAVYYCAAEWDPVFATDEDDYWGQGTQVTVSS | low polyreactivity |
| QVQLVESGGGLVQAGGSLRLSCAASGIIFWPYAMGWYRQAPGKERELVASISTGGSTHYADSVKGRFTISRDNAKNTVYLQLNSLKPEDTAVYYCNADVGPTYSYDYWGQGTQVTVSS | low polyreactivity |
| QVQLVESGGGLVQAGGSLRLSCAASGIIFWRYAMGWYRQAPGKERELVASISSSGGRTYYADSVKGRFTISRDNAKNTVYLQMNSLTPEDTAVYYCAARGPYGYDLLYYWGQGTQVTVSS | high polyreactivity |
| QVQLVESGGGLVQAGGSLRLSCAASGIIFWSYVMGWYRQAPGKERELVAAITFSGGSTYYADSVKGRFTISRDNAKNTVYLQMNSLKPEDTAVYYCAARYKLVRRYDYWGQGTQVTVSS | low polyreactivity |
| QVQLVESGGGLVQAGGSLRLSCAASGIIFWWYAMGWSRQAPGKERELVAAISGTGGSTYYADSVKGRFTISRDNAKNTVYLQMNSLKPEDTAVYYCAKRASPFWRGYDSWGQGTQVTVSS | low polyreactivity |
| QVQLVESGGGLVQAGGSLRLSCAASGIIFWWYTRGWYRQAPGKERELVAAISRGGNTNYADSVKGRFTISRDNAKNTVYLQMNSLKPEDTAGYYCAADRHYRFWQDDYWGQGTQVTVSS | high polyreactivity |
| QVQLVESGGGLVQAGGSLRLSCAASGIIFWYNAMGWYRQAPGKERELVASISTGGRTYYADSVKGRFTISRDNAKNTVYLQMNSLKPEDTAVYYCAAASRVGFLYCYWGQGTQVTVSS | low polyreactivity |
| QVQLVESGGGLVQAGGSLRLSCAASGIIFWYNTMGWYRQAPGKERELVAAITYGGGSTYYADSVKGRFTISRDNAKNSVYLQMNSLKPEDTAVYYCAVRNWHLIKYLHGYSRYGYWGQGTQVTVSS | low polyreactivity |
| QVQLVESGGGLVQAGGSLRLSCAASGIIFWYYAMGWYRQAPGKERELVAAINSGGSTNYADSVKGRFTISRDNAKNTVYLQMNSLKQEDTAVYYCAARYRWPIPGTQYEYWGQGTQVTVSS | low polyreactivity |
| QVQLVESGGGLVQAGGSLRLSCAASGIIFWYYAMGWYRQAPGKERELVAAISSGGGTNYADSVKGRFTISRDNAKNTVSLQMNSLKPEDTAVYYCNADDNPVWEYDYWGQGTQVTVSS | low polyreactivity |
| QVQLVESGGGLVQAGGSLRLSCAASGIIFYDNALGWYRQAPGKERELVAALDSDGSTDYADSVKGRFTISRDNAKNTVYLQMNSLKPEDTAVYYCAADLVWYASGRYIYRGYDYWGQGTQVTVSS | low polyreactivity |
| QVQLVESGGGLVQAGGSLRLSCAASGIIFYDYAMGWYRQAPGKERELVAAISRSGGSTYYADSVKGRFTISRDNAKNTVYLQMNSLKPEDTAVYYCAKDRDFSSPPTESGFDYWGQGTQVTVSS | low polyreactivity |
| QVQLVESGGGLVQAGGSLRLSCAASGIIFYDYAMGWYRQAPGKERELVAAITSNGDNTYYADSVKGRFTISRDNAKNTVYLQMNSLKPEDTAVYYCDVDGSFAADFDNYLEEYGYWGQGTQVTVSS | low polyreactivity |
| QVQLVESGGGLVQAGGSLRLSCAASGIIFYDYAMGWYRQAPGKERELVAAITSSGGSTYYADSVKGRFTISRDNAKNTVYLQMNSLKPEDTAVYYCADATRGSGRRYDYWGQGTQVTVSS | high polyreactivity |
| QVQLVESGGGLVQAGGSLRLSCAASGIIFYFYAMGWYRQAPGKERELVADITSGDRTNYADSVKGRFTISRDNAKNTVYLQMNSLKPEDTAVYYCAAGTSKPTPIYGYWGQGTQVTVSS | low polyreactivity |
| QVQLVESGGGLVQAGGSLRLSCAASGIIFYGYVMGWYRQAPGKERELVATITSSGGSTYYADSVKGRFTISRDNAKNTVYLQMNSLKPEDTAVYYCAAYYYYGAWVRHDYWGQGTQVTVSS | low polyreactivity |
